Laboratory results from PMC10709384, “Structure of the complete Saccharomyces cerevisiae Rpd3S-nucleosome complex” (Nature Communications, 2023).

Biological target: the molecule itself
Assay: cryo-EM structure; nucleosome (0.9 µM) and Rpd3S (1.8 µM) mixed on ice for 1 h in 50 mM NaCl, 20 mM Na-HEPES pH 7.4, 1 mM TCEP, 4% glycerol; Superose 6 Increase 3.2/300; mild glutaraldehyde cross-linking; single-particle cryo-EM, overall 2.8 Å (Ume1 only at more than 8 Å)

B1: Rco1 (natural protein, S. cerevisiae)
chain: MDTSKKDTTRSPSHSNSSSPSSSSLSSSSSKEKKRPKRLSSQNVNYDLKRRKIITSEGIERSFKNEHSNLAVEDNIPEEEPKELLEKDSKGNIIKLNEPSTISEDSKVSVTGLPLNKGPSEKIKRESLWNYRKNLGGQSNNSEMTLVPSKRFTQVPKNFQDLNRNDLKTFLTENMTEESNIRSTIGWNGDIINRTRDREPESDRDNKKLSNIRTKIILSTNATYDSKSKLFGQNSIKSTSNASEKIFRDKNNSTIDFENEDFCSACNQSGSFLCCDTCPKSFHFLCLDPPIDPNNLPKGDWHCNECKFKIFINNSMATLKKIESNFIKQNNNVKIFAKLLFNIDSHNPKQFQLPNYIKETFPAVKTGSRGQYSDENDKIPLTDRQLFNTSYGQSITKLDSYNPDTHIDSNSGKFLICYKCNQTRLGSWSHPENSRLIMTCDYCQTPWHLDCVPRASFKNLGSKWKCPLHSPTKVYKKIHHCQEDNSVNYKVWKKQRLINKKNQLYYEPLQKIGYQNNGNIQIIPTTSHTDYDFNQDFKITQIDENSIKYDFFDKIYKSKMVQKRKLFQFQESLIDKLVSNGSQNGNSEDNMVKDIASLIYFQVSNNDKSSNNKSASKSNNLRKLWDLKELTNVVVPNELDSIQFNDFSSDEIKHLLYLKKIIESKPKEELLKFLNIENPENQSE
notes: Rco1, S. cerevisiae, amplified from genomic DNA of strain BJ5464; cloned into a 438-A vector with no tag; Two copies (Rco1A in the core module, Rco1B in the auxiliary module) stand in the Rpd3S complex; also called Rco1A; Rco1B
  binding result: binds
